In the DeepSol protein solubility set:

test: soluble on expression in E. coli; label from the status in PepcDB or PDB records

Sequence | soluble on expression in E. coli
MSLAEKPIKLGVLEDQSGDFAVATIGKVHAIQLAADEINKAGGIMGRPLELVVYDTQSDNTRYQEFMRRVLQRDKADAVFAGFSSASREAYRPIVDQLNGLAFYNNQYEGGVCDGHMIVTGAVPEQQFSTLIPWMMEKYGKKVYTLAADYNFGQISAEWVRNIVKQHGGEMAGVEFIPLGVSQFSQSIQNIQKAKPDFVVTLLVGTAQASYYEQAASANVNLPMASSVNVGQGYEHKRFKPPSLKDMYVTTNYIEEIDSPQSKAFLAKFKAKFPNEPYVNQEAENSYLAVYLYKQMVERAKSTNRDEIRKVIAQGDVCMDAPEGKVCIDPKSQHMSHTIYLAHVNADHSIDFPKVWPDIKPYWLGEAGCDLTKKDPMAQYTPSNEGHHHHHH | soluble
MSLAELTALYTLTAQMKREGICRLLVLSGEEGWCFDHALKLRDALPGDWLWISPQLDAENHCSPSALQTLLGREFRHAVFDARHGFDAAAFAALSGTLKAGSWLVLLLPVWEEWENQPDADSLRWSDCPDPIATPHFVQHLKRVLTADNDAILWRQNQPFSLAHFTPRTDWHPATGAPQPEQQQLLQQLLTMPPGVAAVTAARGRGKSALAGQLISRIAGSAIVTAPAKAATDVLAQFAGEKFRFIAPDALLASDEQADWLVVDEAAAIPAPLLHQLVSRFPRTLLTTTVQGYEGTGRGFLLKFCARFPHLHRFELQQPIRWAQGCPLEKMVSEALVFNDENFTHTPQGNIVISAFEQTLWRSEPETPLKVYQLLSGAHYRTSPLDLRRMMDAPGQHFLQAAGENEIAGALWLVDEGGLSQELSQAVWAGFRRPRGNLVAQSLAAHGSNPLAATLRGRRVSRIAVHPARQREGTGRQLIAGALQYTHDLDYLSVSFGYTGELWRFWQRCGFVLVRMGNHREASSGCYTAMALLPMSDAGKQLAEREHYRLRRDAQALAQWNGEMLPVDPLNDAILSDDDWLELAGFAFAHRPLLTSLGCLLRLLQTSELALPALRGRLQKNASDAQLCTTLKLSGRKMLLVRQREEAAQALFALNEVRTERLRDRITQWQFFHEGHHHHHH | soluble
MSLAERLEIMVPSGSYVSFMRNTVTPEFNKLYPEVNLVVSNDEQLDTRMAAGDNPNVYIGVFGYQPAKLAKLGKLAYLDKFPGFAELNERIDPHFLRENFGRTYYIPWNATTQMMIYNKELFAEAGLDPERPPATWDEFLLAAEKISALPPRSDGSKVYGTVFWNDVLSFGSWYWNLLTPMYYNVNQGQYQLLNRYGTDIVFDRPDANMAQFMRTMQQAQRFAPLTMEKSFFSRNIGMWLQFGFGWKATLSSAAERPMVVGQDVAIAPIPVQTKGDIHYSVLDGRAIMIFKDEARKEQLSWALLNLLMRDDINLQANIALGQLPTLKALQDAPYFQSAEAQPFVQQLQHAILSEPFANAMEVANIILANYSKVVLKGEISPEQAVATSAQAARQLLNEHEGHHHHHH | soluble
MSLAGCTSPANNGAGGDENGETVYRVAYVARTQSDSFAAWLANAISEEADKYDNIIIDVFDGQASDSTQNSLIENAITSNYDAIIIQPNNGEAQKSYAEQAVAAGIITITTNARIEGVQGASSVDADPYEQAKVNADVALEQIPQNANVVVLKGPPGNFHADARRDSWQKEFFDKRPDVTIVGEEIANWNKDEAMTYMETWVQANSKIDAIIAMNDNMAAGALEVVRDDSNFAGMLSYGVDGTAEAVLLIQEGVMTQTSLQSAYDLATALLDTSNKLLTGAETQIDIDIDAPVINSDNVEEYVEMHKRAGAIREGHHHHHH | soluble
MSLAHEMRDGSSRGLRIDFHVHLGVYADHKPWVTEWIKQSQPDPGEYDAYIERYSDPGAFEELLAAEGVDYACVLAELCPITTGICSNEQVEAFCKGRKRLIPFCSINPHLTTDLGGELRRLVETEGFRGLKLYPSYQHYYLNDPRVYPLYQAAQELGIPVLIHTGSSVFKGTRIKYCDPIHLDDVANDFPSLNLVMAHSGRGFWYDRAFFLSKLHSNLYMEVSGLPPSKLMTYFPELARNTDKVIFGSDWPGASQIKRNMDAIGALPLPAEGVEKILGGNAARLLNFEGHHHHHH | soluble
MSLAKLDETLTMLKDLTDAKGIPGNEREVRQVMKSYIEPFADEVTTDRLGSLIAKKTGAENGPKIMIAGHLDEVGFMVTQITDKGFIRFQTVGGWWAQVMLAQRVTIVTKKGEITGVIGSKPPHILSPEARKKSVEIKDMFIDIGASSREEALEWGVLPGDMIVPHFEFTVMNNEKFLLAKAWDNRIGCAIAIDVLRNLQNTDHPNIVYGVGTVQEEVGLRGAKTAAHTIQPDIAFGVDVGIAGDTPGISEKEAQSKMGKGPQIIVYDASMVSHKGLRDAVVATAEEAGIPYQFDAIAGGGTDSGAIHLTANGVPALSITIATRYIHTHAAMLHRDDYENAVKLITEVIKKLDRKTVDEITYQEGGSHHHHHH | soluble
MSLAKQDELVFLPLGGVGEIGMNLALYGYGPPEHRQWIMVDCGVTFPGPDLPGVDLVLPDIRFLASERKNLKAIIITHAHEDHYGALADLWPGLNVPVYASGFTAGLLEAKRNFEKAKIGEVPVTPFKAGDTINVGPFSIEGVAVNHSIPEPMSLMIRTPVGNVIHTGDWKIDHEPSLGPLTDETRFRQLGDEGVLALMCDSTNALRDGVSPSEKDVSESLRKIIENAEGRVAITTFSSNVGRIRTVAEAAEAAGREVLLLGSSLKRVVDVAQDVGLMEGVKPFISEEEYGYIPRDKVVVILTGSQGEARAALAKLSRDEMRNVAFAAGDIVVFSSRAIPGNEKAIQDIKNGLVEQGVHIITDTEALVHVSGHPRRNELQRMYEWTRPKIVVPVHGEATHLTAHKELAEQSGIALVPRVRNGDILRLAPGEGHHHHHH | soluble
MSLAKTVEEINQKIREGNVVVVTAAEMKDIVEELGPEKAAKEVDVVTTGTFGAMCSSGAFFNFGHADPPIKMQRVWMNDVEAYTGIAAVDAYLGVTQLSESVEEYGGSHVIEELVKGREVELKATAYGTDCYPRKEIVTEVSLEDVNQAVMVNPRNAYQRYNAATNSSNKLLRTYMGTLLPNFGNVTFAGTGEISPLNNDPEYRTIGIGTRIFLCGAKGYVIGEGTQHAPPYGTLMVKGNLKEMKPEYMKAAYFPGYGATLFVGIGIPIPILDAEMAKFTAVRNSEIETKILDFGVARRDRPVVRKVTYEELISGRVEINGEEVRVSPLSSFYMAEKIMKELKRQIERGEFLLTAPVDRIPTKEVFKPMRQREVKVVKSVMVEAYTISPETAIEEAARIMMDKGINHIPVVEEGRLVGIITSWDIAKAVARNRKGAVKSIMTRNVIYTHPDEPVEVAARKMEQNNISALPVVDSRKRVLGIVTSEDLSKLIAREGHHHHHH | soluble
MSLALDLLLLPTWLVPVEPAGVVLREHGLGIRDGHIVFIGPRAEALKYRATEIRELPDTLLTPGLINAHGHAAMTLFRGLADDLLLMTWLEKHIWPAEAKWVDEAFVRDGTDLAIAEQIKGGITCFSDMYFFPKVASERVHNSGMRAQVAIPILDFPIPGAQNADEAIRQGVELFGDLKHHPRINITFGPHAPYTVGDENLEKIRIIAEELDAAIHMHVHETAHEVQQSVEQHGERPLARLARLGLLGPRFQAVHMTQISDDDLALLVETNTSVIHCPESNLKLASGFCPVERLWQAGVNVAVGTDGAASNNDLDLLGETRTAALLAKAVAGSATALDAHRALRMATLNGARAMGLESQVGSLEIGKAADLTAFDLSGLAQQPIYDPVSQLIYATGRDCVKHVWVAGKQLLDDRCLTRLDEHQLGATARDWARRISGHEGHHHHHH | soluble
MSLALLNVDKLSVHFGDESAPFRAVDRISYSVKQGEVVGIVGESGSGKSVSSLAIMGLIDYPGRVMAEKLEFNGQDLQRISEKERRNLVGAEVAMIFQDPMTSLNPCYTVGFQIMEAIKVHQGGNKSTRRQRAIDLLNQVGIPDPASRLDVYPHQLSGGMSQRVMIAMAIACRPKLLIADEPTTALDVTIQAQIIELLLELQQKENMALVLITHDLALVAEAAHKIIVMYAGQVVETGDAHAIFHAPRHPYTQALLRALPEFAQDKERLASLPGVVPGKYDRPNGCLLNPRCPYATDRCRAEEPALNMLADGRQSKCHYPLDDAGRPTEGHHHHHH | soluble
MSLAMKKHLFTLTLSSVLAIPAVSHAEFKGGFADIGIHYLDWTSRTTEKSSTKSHKDDFGYLELEGGANFSWGEMYGFFDWENFYNDRHDKPGSEQRYTFKNTNRIYLGDTGFNLYLHAYGTYGSANRVNFHDDMFLYGIGYNFTGSGWWFKPFFAKRYTDQTYYTGDNGYVAGWVAGYSFMLGSEKFTLTNWNEYEFDRDATYAAGNGGKEGLNGAVALWWNATSHITTGIQYRYADDKLGEDFYQDAIIYSIKFNFEGHHHHHH | not soluble
MSLANKILTEKDTDQIRFSILASGSSGNATLVETGDQKILIDCGLSGKKMEGLFAQVGRDMNDLDAILITHEHSDHIKGLGVLARKYKLPIYANAKTWKAMDNMIGEVSSDQKFQFDMETVKTFGSMQVESFGVSHDAIEPMFYIFHKGNKKFVMITDTGYVSDRMKGHIAGADAYLFESNHDVEMLRMGRYPWNVKRRILGDEGHVSNEDAAIAMSEVITDQTKRIYLGHLSKDNNMKELARMSVTQTLMAEGIDVGGKLEIFDTDPDNATSIFTEGHHHHHH | not soluble
MSLAPQRCHRFQSSAYRSNQWRYRGRCDSIQFAVDRRVFIAGLGLYGSSSGKAEYSVKIELKRLGVVLAQNLTKFMSDGSSNTFPVWFEHPVQVEQDTFYTASAVLDGSELSYFGQEGMTEVQCGKVAFQFQCSSDSTNGTGVQGGQIPELIFYAEGHHHHHH | soluble
MSLAQRLATGKAGSIGLVMPTAPGHQSDVHFGEFLAGLGEEAVRHDFHFVIMPSDPDDEVAALRRLAISGNVDALFIAYMRGHDPRLAMLKSLSMPYVVHGRSFGAELDYPYLDIDNEGAFYDATRLLLQLGHTRFALMNGPMHLDFAIRRRNGVISALAERGLTLEEDCMSHALMTDEQGLLAMERFLQLPERPTAILCSSTVMALGAIRAVNQAGLRLGEDVSLIAHDDVLPLLKPENFSVPLTTTRSSLRAAGVRIAQRLIGTVKQAGPFPEQELWKTELIVRASTGPAPQEGHHHHHH | soluble
MSLARSTPAIVILGQGSLDTARQIQRLYPDSLIHGLAERVEGADRVYHEFGATLRQLYQQDTPIIALCAAGIVIRTLAPLLLEKGAEPPVLAVAEDGSAVVPLLGGLGGVNVMAREIAAGLGVAAAITTSGELRFGTCLLNPPSGYALGDLELGKRFVSDLLGGESVRIEGAAPWLAAAKLPENDQARLTIRVGSAEREPVANELLIYPRSVLVACRGQRLAGEADSDLATHIRQALHQARIAVQSVACLLAADRDMADRALHQAAAQLGVPLRFLPAADSVAELAQQAVPQLLPPLKVGEDIAIAVASQPLDPEQIGRPRGRLAVIGLGPGAAELMVPAVKAELARANDILGYETYVRMAGPFRADQVMHCTDNREEMQRARHAFELAAQGRSVVVVSSGDPGVFAMAAAVIEALHESSDPAWHSVDLEILPGVSASLATAAQAGAPLGHDFCVLSLSDNLKPWDIIEKRLDLASQADLALAFYNPISRSRPWQLGRALEIVRQHRTPQTPVVLGRDIGRPGQTLRVITLGELTPEQVDMRTMVLVGSSTTCVFPRAGGGDWVYTPRWYGNKEGHHHHHH | soluble
MSLASQSEAEVLIGVAGPMSGKLAWTGTQLRRGAEMAVANINAAGGVLGQQVRLIVADDFCDPRQALAAAEKLVADGAVFVIGHYCSGASIPASKIYAAAGVLQISPSSTNPMLTEQGHANVFRVCSRDDAQGHKAGNYLADHWGDSKIAILHDNTTYGKGLADETKKQLNMRGVTEAVYQSYTPGKDDYSVEVAALQTAHIAVLYLGGYHTEAALMVRAARDRAYPVQLISGDDTATEAFGLIAGPAAEGTLFTFVADPRRNAEAAEVVERFRAENFEPDSWTLHSYGAAEIWAQAVTKANSLDLQAVIAALREDQFDTVLGRIDFDKKGDLTVQSWVWYVWKSGEYVPVEEGHHHHHH | soluble
